Experiment: yeast display, Sf9 membrane polyspecificity reagent, FACS + sequencing; frameworks hold sequencing errors
Procedure, shortened: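 Polyreactivity labels are assigned by the sorting gate from which each nanobody was recovered. The gates were low and high (top ~1%), set on anti-HA fluorescence for expression and streptavidin fluorescence for reagent binding. Before sorting, galactose-induced (36–48 hours) yeast display cells were stained for 1 hour at 4 °C with 10% biotinylated, detergent-solubilized Sf9 membrane reagent.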

| Sequence | polyreactivity (PSR sort gate) |
| --- | --- |
| QVQLVESGGGILQAGGSLRLSCAASGSIFGGNAMGWYRQAPGKERELVAAITSTVSTNYADSVKGRFTISRDNAKNTVYLQMNSLKPEDTAVYYCANDTSNVEGDYWGQGTQVTVSS | low polyreactivity |
| QVQLVESGGGLVQAGGSLRLSCAASGSSFRRYAMGWSRQAPGKERELVASITASGGSTYYADSVKGRFTISRDNAKNTVYLQMNSLKAEDTAVYYCNKDTIKSYYRRYDSWGQGTQVTVSS | low polyreactivity |
| QVQLVESGGGLVQAGGSHGLSCAASGRTFYYYAMGWYRPAPGKERELVAAITSGGRTYYADSVKGRFTISRDNAKNTDYLQMNRLKPEDTAVYYCAADLSDPDWSRYQWDMDYWGQGTQVTVSS | low polyreactivity |
| QVQLVESGGGLVQAGGSLRLSCAASGSTLYFNAMGWYRQAPGKERELVATITSGGSTYYADSVKGRFTISRDNAKNTVYFQMNSLKPEDTAAYYCNADFGSYATNGLTPLYDYWGQGTQVTVSS | high polyreactivity |
| QVQLVESGGGLVQAGGSLRLSCAASGFTFKKNAMGWYRQAPGKERELVDAISISGGSTYYADSVKGRFTISRDNAKNTVYLQMNSLKPEDTAVYYCAAVYISRNFFGRARGDYWGQGTQVTVSS | low polyreactivity |
| QVQLVESGGGLVQAGGSLRLSCAASGFTLFQNAMGWYRQAPGKERELVAAISTGGSTYYADSVKGRFTISRDNAKNTVYLQMNSLKPEDTAVYYCAAVWPYRGSRKYYSWGQGTQVTVSS | high polyreactivity |
| QVQLVESGGGLVQAGGSLRLSCAASGRTYWYYVMGWYRQAPGTERELVAAISSSGGRTYYADSVKGRFTISRDNAKNTVYLQMNSLKPEDTAVYYCNVDAWYPYQGFLVGYYYWGQGTQVTVSS | low polyreactivity |
| QVQLVESGGGLVQAGGSLRLSCAASGITFGWYAMGWYRPAPGKERELVAAISWSGGTTYYADSVKGRFTISRDNAKNTVYLQMNSLKPEDTAVYYCAATWYYPTVYAGNYWGQGTQVTVSS | high polyreactivity |
| QVQLVESGGGLVQAGGSLRLSCAASGRIFRFYAMGWYRQAPGKERELVAAISSSAGGTYADSVKGRFTISRDYAKNTVYLQMNSRKPEDTAVYYCAARAYALYDWGQGTQVTVSS | high polyreactivity |
| QVQLVESGGGLVQAGGSLRLSCAASGRIFNYYAMGWYRQAPGKERELVAAISARGGSTYYADSVKGRFTISRDNAKNTVYLQMNSLKPEDNAVYYCAKRLYYSYGKYLLGAYYYWGQGTQVTVSS | high polyreactivity |
| QVQLVESGGGLVQAGGSLRLSCASSGRTFYYYAIGWYRQSPGKETELVAVIRSSGDSTYYADSVKGRFTISRDNAKNTVSLQMNSLKPEDNAVYYCAAEAPSRCYSWHPRYYFWGQGTQVTVSS | low polyreactivity |
| QLQLVESGGGLVQAGGSLRLSCAASGRTFQGYAMGWYRQAPGKERELVAAISRSGGRTYYADSVKGRFTISRDNAKYTVYLQMNSLKPEDTAVYYCCTEAFRDYGYWGQGTQVTVSS | high polyreactivity |
| QVQLVESGGGLVQVGGSLRLSCAASGRTFWWYAMGWYRQAPGKERELVAAISRGSTNYADSVKGRFTISRDNAKNTVYLQMNSLKPEDTAVYYCKAVSLYQSHDYDYWGQGTQVTVSS | low polyreactivity |
| QVQLVESGGGLVQAGGSLRLSCAASGRIFVDYDMGWYRPAPGKERELVATISSGGSTNYADSVKGRFTISRDNAKNTVYLQMNSLKPEDTAVYYCAASSYSTSYIRGDYWGQGTQVTVSS | low polyreactivity |
| QVQHVESGVGLVQAGGSLRLSCAASGFTFGWYAMGWYRQAPGKERELVASISWSGSTTYYADSVKGRFTISRDIAKNTVYLQMNSLKPEDTAVYYCNARRSYVRNDFDYWGQGTQVTVSS | high polyreactivity |
| QVQLVESGGGLVQAGGSLRLICAASGGIFYFNAMGWYRQAPGKERELVASITWSGGNTYYADSVKGRFTISRDNAKNTVYLQMNSLKPEDTAVYYCAADTQEYRPTYDYWGQGTQVTVSS | low polyreactivity |

| Sequence | polyreactivity (PSR sort gate) |
| --- | --- |
| QVQLVESGGGLVQAGGSLRLSCAASGRTFHRYVMGWYRQAPGKERELVAAITSGGRTTYADSVKGRFTISRDNAKNTVYLQMNSLKPEDTAVYYCAAELTVRGTWVQQRTFRYDYWGQGTQVTVSS | low polyreactivity |
| QVQLVESGGGLVQAGGSLRLSCAPSGRIFWRYAMGWYRQAPGKERELVAGITYSGGRTYYADSVKGRFTISRDNAKNSVFLQMNSLKPEDSAVYYCAARGYFDALVDYWGQGTQVTVSS | low polyreactivity |
| QVQLVESGGGLVQAGGSLRLSCAASGSIFRGYAMGWYRQAPGKERELVATIDSSAGSTYYADSVKGRFTISRDNAKNTVYLQMNSLIPEDTAVYYCATDPYGYYYSGFDNWGQGTQVTVSS | low polyreactivity |
| QVQLVESRGGLVQAGCSLRLRCAASGYIFYGYDKGWYRPAPGKERELVAGITYSGGGGTHYADSVKGRFTISRDNAKNTVYLQMNSLKQEDRGVYYCAKADPQLNRTYYSYGMDSWGQGTQVTVSS | low polyreactivity |
| QVQLVESGGGLVQAGGSLRLSCAASGRIFRYNAMGWYRQAPGKERELVAAISTRGGNTYYADSVKGRFTISRDNAKNTVYLQMNSLKPEDTAVYYCNARSSLPYNYWGQGTQVTVSS | high polyreactivity |
| QVQLVESGGGLVQAGGSLRLSCAASGSIFGYNVMGWYRQAPGKEWELVAAITYSGGSTYYADSVKGRFTISRDNAKNTVYLQMNSLKPEDTAVFYCNAVTLRRIYSNPEYDSWGQGTQVSVSS | high polyreactivity |
| QVQLVESGGGLVQAGGSLRLSCAASGFIFTRYAMGWYRQAPGKERELVAAISASGGSTYYADSVKGRFTISRDNAKNTVYLQMKSLKPEETAVYYCAAVPYRYTYDYWGQGTQLTVSS | high polyreactivity |
| QVQLVESGGGLVQAGGSLRLSCAASGSILGLYAMGWYRQAPEKDRELVAASTWSGGSTYYADSVKGRFTISRDNAKNTVYLQMNSLKPEDTAVYYCAALARGYWVVNSLGSYDYWGQGTQVTVSS | high polyreactivity |
| QVQLVESGGGLVQSGGSLRLSCAASGRILSYNTMGSYRQAPGKERELVAAISRGGSTYYADSVKGRFTISRDNAKNTVYLQMNSLKPEDTAVYYCNALLPPGSRKYNYWGQGTQVTVSS | high polyreactivity |
| QVQLVESVGGLVQAGGSLRLSCAASGRIFSVNAMGWYRQAPGKERELVAAITTRGGTTYYADSVKGRFTISRDNAKNTVYLQMNSLKPEDTAVYYCAAESSWYVYWEWAHDYWGQGTQVTVSS | low polyreactivity |
| QVQLVESGGGLVQAGGSLRLSCAASGSIFSLYAMGWYRQAPGKERELVAAISSSGTSTYYADSVKGRFTISRDNAKNTVYLQMNSLKPEDTAVYYCNAYREFDWGQGTQVTVSS | high polyreactivity |
| QVQLVESGVGLVQAGGILRLSCAASGSIFWPNAMGWYRHAPGKERELVAGISYSGGRTYYADSVKARFTISRDNEKNTVYLQMNSLKPEDTAVYYCTARRSSGYGYWGQGTHVTVSS | high polyreactivity |
| QVQLVESGGGLVQAGGSLRLSCAASGITVFENAMGWYRQAPGKERELVAAISYSGGSTYYADSVKGRFTISRDNAKNTVYLQMNSLKPEDTAVYYCAADWYYFLYIRNRWGYGYWGQGTQVTVSS | high polyreactivity |
| QVQLVESGGGLVQAGGSLRLSCAASGRTFRTNTMGWYRQAPGKERELVAAIRYIGGSTYYADSVKGRFTISRDNAKNTVYLQMNSLKPEDTAVYYCAAYRYGSRYGYEYWGQGTQVTVSS | high polyreactivity |
| QVQLVESGGGLVQAGGSLRLICAASGITYDQNAMGWYRQAPGKDRDLVAAITRGSSTNYADSVKGRVTISRDNAKNTVYLKMNSVKPEDTAVYYCAAAVLGSSKSEVDPDRPEYYYWGQGTQVTVSS | low polyreactivity |

Reference: the nanobody polyreactivity screen of Harvey et al. (2022)
